According to article PMC3317646, “Interaction of Chandipura Virus N and P Proteins: Identification of Two Mutually Exclusive Domains of N Involved in Interaction with P” (PLoS ONE, 2012):
Read-outs that look alike come from different tables or passages of the source.

T1: N-terminal six histidine tagged P protein of Chandipura virus (His-P) (Chandipura virus, UniProt P16380 1-293)
T1 construct: Chandipura virus phosphoprotein P, full length (pET20b-P); pET20b usually adds a C-terminal His tag (surmise); also called 6×His-P; pET20b-P; source: bacterially expressed, purified (Ni-NTA agarose); not shown: His6, N-terminal, kept
T1 sequence: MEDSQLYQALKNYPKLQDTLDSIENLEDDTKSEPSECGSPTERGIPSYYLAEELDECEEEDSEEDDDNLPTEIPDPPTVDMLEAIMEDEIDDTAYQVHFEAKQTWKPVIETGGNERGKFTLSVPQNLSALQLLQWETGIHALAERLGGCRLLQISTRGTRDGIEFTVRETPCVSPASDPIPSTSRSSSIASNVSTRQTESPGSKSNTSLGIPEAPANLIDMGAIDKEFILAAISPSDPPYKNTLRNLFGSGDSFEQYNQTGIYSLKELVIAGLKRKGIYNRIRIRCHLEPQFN

B1: Chandipura virus phosphoprotein (P), wild-type, untagged, bacterially expressed (natural protein)
chain: T1 sequence
notes: Chandipura virus phosphoprotein P, wild-type (pET3a-P); also called CHPV P; pET3a-P; source: bacterially expressed, purified (Q-Sepharose anion exchange)
B2: N(1/180–265/422), bacterially expressed (domain or fragment)
chain: MSSQVFCISTGQTVSVCLPANEDPVEFPGAFFTPNAKKPTVYIKKETDLSLLRSHVYDGIKDGSVTVSQINSYLYMVLKDIREKPDKNWTSFGVELGKKNEPMGIFDLLNVEDVKGKELDKKGQDTRLPGDDLWLPTLIFGLYRVSRATQVEYKKTLMTNLYAQCKLRTKDAEEIVDETAPGQEIDQADSYMPYLIDMGLSTKSPYSSTKNPSFHFWGQLTAFLVKSARAKNALVPVDIAYHELTTAALLFAYAIGRSSELEQRFVLNGKKFTKEKDSREDNDTTPPSERNVVVWLAWWEDIKHEITPDMKAFAKRAVERVGDIRVNSVAEYARKLFA
notes: also called middle deletant; source: E. coli BL21(DE3) or BL21(DE3)pLysS, purified (anion exchange, MonoQ 5/50 GL)
B3: N(1–220), bacterially expressed (domain or fragment)
chain: MSSQVFCISTGQTVSVCLPANEDPVEFPGAFFTPNAKKPTVYIKKETDLSLLRSHVYDGIKDGSVTVSQINSYLYMVLKDIREKPDKNWTSFGVELGKKNEPMGIFDLLNVEDVKGKELDKKGQDTRLPGDDLWLPTLIFGLYRVSRATQVEYKKTLMTNLYAQCKLRTKDAEEIVDETAEFFNAWANDSNFTKIVAAVDMYFHHFKKSDHAPIRFGTIV
notes: Chandipura virus nucleocapsid protein N, residues 1-220; source: E. coli BL21(DE3) or BL21(DE3)pLysS, purified (anion exchange, MonoQ 5/50 GL)
B4: N(1–47), bacterially expressed (domain or fragment)
chain: MSSQVFCISTGQTVSVCLPANEDPVEFPGAFFTPNAKKPTVYIKKET
notes: Chandipura virus nucleocapsid protein N, residues 1-47; source: E. coli BL21(DE3) or BL21(DE3)pLysS, purified (anion exchange, MonoQ 5/50 GL)
B5: N(1–390), bacterially expressed (domain or fragment)
chain: MSSQVFCISTGQTVSVCLPANEDPVEFPGAFFTPNAKKPTVYIKKETDLSLLRSHVYDGIKDGSVTVSQINSYLYMVLKDIREKPDKNWTSFGVELGKKNEPMGIFDLLNVEDVKGKELDKKGQDTRLPGDDLWLPTLIFGLYRVSRATQVEYKKTLMTNLYAQCKLRTKDAEEIVDETAEFFNAWANDSNFTKIVAAVDMYFHHFKKSDHAPIRFGTIVSRFKDCAALSTLSHLQKVTGLPIEEVFTWVFNKSVQDDLLRMMTPGQEIDQADSYMPYLIDMGLSTKSPYSSTKNPSFHFWGQLTAFLVKSARAKNALVPVDIAYHELTTAALLFAYAIGRSSELEQRFVLNGKKFTKEKDSREDNDTTPPSERNVVVWLAWWEDIKHEI
notes: Chandipura virus nucleocapsid protein N, residues 1-390; source: E. coli BL21(DE3) or BL21(DE3)pLysS, purified (anion exchange, MonoQ 5/50 GL)
B6: Chandipura virus nucleocapsid protein (N), wild-type, untagged, bacterially expressed (natural protein)
chain: MSSQVFCISTGQTVSVCLPANEDPVEFPGAFFTPNAKKPTVYIKKETDLSLLRSHVYDGIKDGSVTVSQINSYLYMVLKDIREKPDKNWTSFGVELGKKNEPMGIFDLLNVEDVKGKELDKKGQDTRLPGDDLWLPTLIFGLYRVSRATQVEYKKTLMTNLYAQCKLRTKDAEEIVDETAEFFNAWANDSNFTKIVAAVDMYFHHFKKSDHAPIRFGTIVSRFKDCAALSTLSHLQKVTGLPIEEVFTWVFNKSVQDDLLRMMTPGQEIDQADSYMPYLIDMGLSTKSPYSSTKNPSFHFWGQLTAFLVKSARAKNALVPVDIAYHELTTAALLFAYAIGRSSELEQRFVLNGKKFTKEKDSREDNDTTPPSERNVVVWLAWWEDIKHEITPDMKAFAKRAVERVGDIRVNSVAEYARKLFA
notes: Chandipura virus nucleocapsid protein N, full-length untagged (pET3a-NC); Oligomeric (nucleocapsid-like rings) as purified; monomeric after 1% DOC; also called CHPV N; wild-type N
B7: N(1–320), bacterially expressed (domain or fragment)
chain: MSSQVFCISTGQTVSVCLPANEDPVEFPGAFFTPNAKKPTVYIKKETDLSLLRSHVYDGIKDGSVTVSQINSYLYMVLKDIREKPDKNWTSFGVELGKKNEPMGIFDLLNVEDVKGKELDKKGQDTRLPGDDLWLPTLIFGLYRVSRATQVEYKKTLMTNLYAQCKLRTKDAEEIVDETAEFFNAWANDSNFTKIVAAVDMYFHHFKKSDHAPIRFGTIVSRFKDCAALSTLSHLQKVTGLPIEEVFTWVFNKSVQDDLLRMMTPGQEIDQADSYMPYLIDMGLSTKSPYSSTKNPSFHFWGQLTAFLVKSARAKNALVP
notes: Chandipura virus nucleocapsid protein N, residues 1-320; also called N(1–320)^0 (monomer after DOC treatment); source: E. coli BL21(DE3) or BL21(DE3)pLysS, purified (anion exchange, MonoQ 5/50 GL)
B8: N(22–422), bacterially expressed (domain or fragment)
chain: EDPVEFPGAFFTPNAKKPTVYIKKETDLSLLRSHVYDGIKDGSVTVSQINSYLYMVLKDIREKPDKNWTSFGVELGKKNEPMGIFDLLNVEDVKGKELDKKGQDTRLPGDDLWLPTLIFGLYRVSRATQVEYKKTLMTNLYAQCKLRTKDAEEIVDETAEFFNAWANDSNFTKIVAAVDMYFHHFKKSDHAPIRFGTIVSRFKDCAALSTLSHLQKVTGLPIEEVFTWVFNKSVQDDLLRMMTPGQEIDQADSYMPYLIDMGLSTKSPYSSTKNPSFHFWGQLTAFLVKSARAKNALVPVDIAYHELTTAALLFAYAIGRSSELEQRFVLNGKKFTKEKDSREDNDTTPPSERNVVVWLAWWEDIKHEITPDMKAFAKRAVERVGDIRVNSVAEYARKLFA
notes: source: E. coli BL21(DE3) or BL21(DE3)pLysS, purified (anion exchange, MonoQ 5/50 GL)

How the values were obtained:
[1] = target: the molecule itself; experiment: SEC; each purified protein alone on Superdex-200 / S-200 (10/300), 100 mM NaCl TET buffer; oligomerization status from the elution volume
[2] = target: the molecule itself; experiment: as above; remark: listed apart in the source
[3] = target: T1, N-terminal six histidine tagged P …; experiment: pull-down; His-tag co-elution after 1% DOC treatment of the N variants and dialysis against the binding buffer in presence of His-P (N variants monomeric); Ni-NTA agarose, eluted with 250 mM imidazole; settings: both partners purified
[4] = target: B1; experiment: SEC; equimolar N (or N(1–320)) and P incubated 30 min at 4°C in 100 mM NaCl TET buffer, no DOC treatment (N oligomeric); S-200 (10/300); ratio by densitometry of bands; settings: both partners purified
[5] = target: B1; experiment: SEC; N (or N(1–320)) pre-treated with 1% DOC for 30 min, then DOC removed by overnight dialysis against 100 mM NaCl TET buffer with or without equimolar P; S-200 (10/300); ratio by densitometry of bands; settings: both partners purified

Binder	stoichiometry N [1]	stoichiometry N [2]	also measured
B1	2	–	–
B2	2	3	–
B3	–	4	binding result [3]: binds
B4	–	3	–
B5	–	8	–
B6	~10	–	stoichiometry N [4]: 2 N:P (molar ratio)
B7	–	8	stoichiometry N [5]: 1 N(1–320):P
B8	–	8	–
